Laboratory results taken from the NTF2 design screens of Basanta et al. (2020).

Experiment: protease stability score; higher = more stable; yeast display proteolysis, trypsin and chymotrypsin;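 also: relative to predicted unfolded state with 0 unfolded-like and 1 meaning tenfold more protease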

Sequence	protease stability score
DEDEKDAERAVKHWIKLMHTGDEELLIRLFDPHTRVEIDGVEFHGREKVTELFREFTKRVKNVRIILRRYRIVGEWIEVDTEVRVGDKSSEVHLVILKVDGKWIMHVEHYK	1.85
DEDEKDTHIWIKILEHIWDTGDEESFERLADPNVRFIQGEKELHGRERLIRFLSKYKNLTFRSEDYHIVNGRALVRITNHVNGRDLEMIIYYEKVNGQWHNKEIELR	1.27
DEDEKEAEHAAKLFSRHFRTGDEDLLREMIDPNVRIRIGDKELHGWEEFTRLMREWRFDDVHVEHIHVQGDKVIVDSILHVIINGRHIDFRSHIYIEKIDGRWVIRSFEIR	0.651
DEDEKEAHELSRTIIESWLTGDEDSLSEMMDPHTRSDVNGRISHGREEASRVWHEEMRKLGVKHYEIKRVHSRVIDGRLDLHIYSRMHINGVSRSVELIFHIEKVNGRWLIKEVRVHLL	1.25
DEDEKEATHWWRLLIKNIETGDEKSEKELLDPHARVEIGEFESVGRETVAEMWFRLMEHIRLKDSHEKDFDMQGDYMHVNGHVVGEYNGKHIKSDVRIILIVIDGRVKEVTVKIH	0.208
DEDEKEIAKTVKELVHSLRTGDWEKITRMADPHVKIHVNGRELHGWEEMRRFEEEEFKRLGFKHRDVELKDFRYQGNFAHVHGNLVVEFNGVEEEIDQHIIILKVNGRWLITEIRHH	1.31
DEDEKELERVMREFMRVWLTGNEKDFKELMDPHVRLEIGDKEHHGREEAVRILHEWRRKLGVDHSDYHHIHVQGEKMHVRGISEYNGRTVEVIIEVLIINGKLRSVHVEFR	2.57
DEDEKEQKEIADLWKKYVDTGDEKLLMELMDPTARLNIGDKRFHGRETFEHVMREIKKRYDHFELHIHHIDIQGEKIRMEGREINKFDGKTVDIRTRIRIIVVNGRITFLHHQLD	0.622
DEDEKERKRDLDKLRHFLETGNEQHLLEMLDPHARVTVGDKELIGREDFSKWMLEMRIHHDEIKRLEIYNGRIHVDYEMDVEVGDKRFRTDFRITARKVNGRWILHSMEVK	1.54
DEDEKESKEAIEISFRLWRTGNEEEIHNYADPRARLEVFINGRLIQRHGREDFSRFMNEQLKRLGIDHIHIERLEIQGEKVIVDIHITVNGQHFRLHQDARKVDGRWIIHDVKINLL	2.65
DEDEKEYTEMVLILSRMIETGDEDSLRRLMDPHAKIHINGKEIHGRELWVHILHEHKRKLGYDNIRVNVHRIWVHGDKIRVHGHLHIDGKEHEVHVHIEKINGRWVLRHDEIR	1.68
DEDEKFTKEVIELWIRALRTGDEHTLMRLMDPHVRFEDENYSLHGREDVSRWLIKLLVHLRLEESDEHDSKIIGDKAHLHITSNHIFNGKELHMEIHIIVFKINGRWFVHEVRFR	1.72
DEDEKHARDLMKLWQLAMFTGDEDTLKRLVDPDMRLKYGEFELHGREDLLRFFKHWRLESRLETTDVRFQGDKLVAYGVRRHVSHIDGVEVEETRRVITYILKVDGQWYVKSVEIR	1.67
DEDEKHMEEWLRLLKHALVTGDFEMILRNLDPHYRNDINGREFHGWEFFDKLMKEIRVKDSHLTHIEIYDGKAISETNVDLHVDGKDVLLDTRVVIDKYNGRWIIRHVSID	1.23
DEDEKIARDQLEHFFHSVQTGNEDELRRLLDPNTYIDINGRTYHGREEVVKWMVHWFEHARLRRVHIRHSRSIGDKIILDTKMNVDINGVERHLDVNVIYLKVDGKWINHSEIVK	1.56
DEDEKIIEDIIRKIWLAFMTGDEELYERLADPEDRLEVGEKTAVGREDVRRALHEWIRKLGIKHSHTRHMDFQGDKLIIHGEMLFNGRTFDLQLEFNVVNGRLKSMHVRIR	1.58
DEDEKIIQQFLREHTETNDTGDENTFKKQLDPHARTIFNGREYHGREDAYRILKELGWSRFEFHLRHVDIQGEKLHVMGLLRVDGKWLDVEIVANKINGRWVLTEFHIN	0.417
DEDEKILEKYIRIETRALKTGNEEERENLADPNTKIDVNGVKIHGMEDWSRKLLKWLRDHGATNDLKFERIKFQGEKVILDGRLHVHYNGVDLEIETIIYFTKYNGKWILKSMEVI	0.229
DEDEKIVKHMLEVLIHLILTGDWEMFQKLADPNTRLDINGREQVGWESVTKNLEHMRYHDIRSQHIEIQGNKLRNLTRVDGEVDGVRREIEVHIYSTKINGKWRLTSMQFH	1.1
DEDEKIYRWALSVFLRNFLTGDEDSLRRMMDPDVRLEVGDKEDHGMEKVVRWLTEMMRKFKGATVHLRDHKTQGNKVHLDLELNVGDKHSKLIIIIKKVDGQWIVDEFTVH	1.52
DEDEKKLEHHLRTYEEALRTGDEELNHRLADPNTKVDVDGRYIHGRDFWREIMNQWRFKEMRFREIHLQGDKANVDTEVNIDVNGREMRTESHIISIKIDGRWMIKEVRFR	0.799
DEDEKKLHKLSDELEHIWLTGDEDRWLELADPNTKVIINGKEVHGRENVAREIKKFLEDLGIDHFYIESSLAIDGRTDLNGQIHVNGRTLHVRIINHEFNGRVKRVEIHIR	2.09
DEDEKLKQEWMELFLESLRTGDWRILRKLIDPNVRLEVGDKQVIGREKVLEILKKILDEIRNQDVKLHDYTEINGRIYLDVELDLQQGDKRITLKIHTVLEKYDGRWIIRTFRIE	1.23
DEDEKLLEKIAREFFEALKTGDEDWLTELADPHVKLDVGEWDTHGMEEIKNVLKILLHELGFKHRELHDMDIVNGVNVIDVIIRINGKERKVTIIIVTIDGRIKSIHHRVN	2.15
DEDEKLMEETLKVLIRAFDTGNWEDLKRMVDPHVRIYFNGRIFHGREFFMEYVIHLRHHARIHLELKDIEVQGDKAHADSRVLVIQGDKSWEFDLEINMTKYDGRWHIKTIKIR	2.68

Sequence	protease stability score
DEDEKLSKFAIDNFIQLMLTGDEDSLLHLADPNARLHFNGVEIHGMEEVQERLMRERKERGVRIHSIHIEHIDIQGDWIIVHMHITQRVNGKEESIERILILLKINGRWHLHQIRLH	1.28
DEDEKLSREAFRKLLEDRETGDEHMLTRNADPRARIEVNGVELHGREHAEKFWRHYHEKFKNIRINIEHHEIQGEKVIIRGILHVNGVNLTVEIHALKINGKWLNEEFSVK	0.129
DEDEKMAREFVELWVHLLSTGNEDLEKHLVDPHVRVDINGQEIHGRNHLITFLIQIKNLTFEFRHVRITVVGDKIQVHIHGIVQVNGQWREVMIDFEAEKINGRWLQKQFHVKIH	1.96
DEDEKMLREYQRLFEEASKTGDWEHMVKLLDPDVRIRIGDKDIVGREHVLEQKKRHEDHLGIDRVNIKLVIRDERHQGEKIFLDGEFIMHFNGRTYRQHVTIILTKINGRWWIESIEIR	1.19
DEDEKMMELIIKWLQNWMLTGDFDVLHDLVDPHAKYDIGDKEMHGREAQSFLRRRFDHIEHVHLRIDDVESQGDKLIVHGQNTVVGEINGKRENFKRKVHITLEKIDGQWFEREVRVR	1.51
DEDEKMSHEASRVTLQVLITGDEEAMHRLLDPNARMDYGDKQFHGWEEVSKLTTELLTRLGVDHYHMNDERIYGEKLDLDLTIHVNGRNRKFIIIVRKINGRWLIDSMTFK	0.576
DEDEKNLEKVAHDFIRATETGNEKILHELLDPNTREEINGVDLHGRETIAKFFLDIRRNLGIKVRMRLRDWKIYNGVVELDTEVIIDVGDKRIEHKVVIYVVKYNGRWLIDKIEWI	1.81
DEDEKNMHIAMEIYRESVETGNEKMHRHLLDPHARIRFDGQEFHGWKDAHRFMHHRTHEWRDHHIQLRDRDYIDGRVHIRVIIYGEFNGVRTTRDIEIHVEKIDGRWYFTNLIFG	0.285
DEDEKRARHALTLLVHSFLTGNFEFTTELLDPHYKLHVGEKTYIGRKAIKEWIREFHERIPNIKLKDITIEHMTWVGEKVVVHSRVEGEVDGKEMFLQVEIIMEKVNGRWIVHSIHMN	2.01
DEDEKRELARRFAKNFLHGDHDNIRDLADKDVDAQVGDQTFTGTEQLMRVVKEVRDRVDHFNLTSVDVHNGQADIHARAKVNGRDYRVKIRIKIHNGRILHVQFNRR	1.31
DEDEKRSEEFLNEFFHWVHTGDEEKLVKLMDPHMRLDVNGKESVGRENAFEMWHHLRIRRMDVRDIRVELVGDKAIARSDGHIDGEIDGVRIHTRVDLLLISRKVDGVWLFKSVSINSI	2.23
DEDEKRVEHTERFLSHSRRTGDEETLETMFDPNAKNIIDGRIFIGREFVEIWVRKFKNATEDLKVEEIRVQGNKVELVGNLFVQVGDKRYELDTRIEMTKIDGRWIIHRIEFR	1.21
DEDEKRWFDRADEVRRQWETGDFERHLRLMDPHVRMEVQQGDKHEEYHGRENVMEIIRQELERVKNVKLEVTDLEIQGEKVILRLKLHVNGRDIDIYIDIVFINGRIKHIRIRIQER	1.38
DEDEKSVKYAFTMYMQNITTGDEDTLKKYLDPNVKLHFNGVNLHGMESLNKWIREIRHRVRHVHFKDVRVIDGVLIVHIEWEVREDIDGQETEDRYIVRMIVLKIDGKWILRESQIL	1.74
DEDEKTAEETLNEFIRSLLTGDEDNLKHLLDPNTRFHINGQDIHGWEVYYEMFRQWRVTHVRLEVKDFRIFNGRLDADGHLRMHGTINGKNRDTSSILHMHSVKVNGRWVLTEVRVE	1.78
DEDEKVSHHAYKLIEHLFLTGDESTWMRMADPRTRIIIGDFHLIGREEWARVLKEILDRLGFKHIQFTDREVRVYGEKVHVELHLLLIQGDKEIRVELRYISDKIDGQWRYHSVTHHIK	0.998
DEDEKVVKLVFNEIREARRTGDEEKLHELFDPHVRLEQGDKNIHGREYMITQWRELRFHDYRINITHRTTYNGVAKVDGEVSVDYRIDGVRFHDKFRIKIVILKFDGRWMIHSEHIE	0.822
DEDEKWAERFLELLIRSLVTGDEKTLEELADPRVKVEIGDKILHGRDEFERFIHEARIKSVHVRRMTDINGVMLMDGETTGNIDGVDRRRRTRIWVLKINGQWHLHSYQVV	1.41
DEDEKYEEHYVEMFLRWLQTGDEDQIERNADPNVRLDVNGRDIIGWENIIEHIRQIKNLRIQIRRVRVVDGRSIVDIRVEVNGKRHEVNLIVIIINGKLKEVKFEFR	2.71
DEDEKYLKEFLRILIEARRTGDEQLLERLMDPRVKLDNENHFSHGREDAVRHLNEHSKEARLESVEVHDVRVFNGVILWDVRIHGDIDGRRDTFNVIIIILKVNGRWRLREFIFT	1.39
DEDEKYMQEFLERLWRDLYTGDEESLTRRMDPRTRVDINGVDIHGMERVTEHIKHLVDRADHIELIIHTVNNVDGRAHNDGILVIKVNGREIRIETHFVLLKVDGRWRIQSEEYR	0.399
DEDEKYVREVFRRFVEAVITGNEEELLELIDPHVRVLINGVDNMGREKWSEWMKRYGFRVHHVRIDDEDLINGVARLDTTEDVEYDGRRDTRHSHIIINKVDGRWHIERLEFR	1.01
DEDENIARHAMELYFKLFETGDFNTLSHLLDPNVRSNINGQTLHGRELMLKQFLDLWEHMGVDHIELKDSREHLVNGRVHRHFHGHLHVNGQTYEVHVRFIMVKVNGRWRHTSESISIR	1.1
DEDENLMRQFWETWEEALKTGDEHILHNLMDPNYRFIIGDKEHHGREAAEEFIRRVDHVTDIKFHRYRRIGDKIQIDGHLDGEINGKRNRYRSDIFVLKIDGRWFIHSVQIK	2.31
DEDEQAFRHIMELKIHNINTGDEESLRRLMDPHVRIIIGDKQFHGMEFATEVFRRLGIKYIEDFKIDDLRIQGDKLDAHVTVRGNFNGVHTFHKMRLILRKYDGRWYIEHEEIK	2.14
